Measurements published in the supplement of paper PMC12636428.

Test system: Saccharomyces cerevisiae
Test: transcriptional activation domain activity (GFP:mCherry ratio, weighted mean of sorted bins, harmonized to initial dataset scale) (arbitrary fluorescence ratio units); higher = stronger transcriptional activation
Conditions: beta-estradiol 1 µM; induction time 4 h
In short: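 The activation activity of each tile is the read-weighted mean of bin median fluorescence, averaged across its barcodes and mapped linearly onto the scale of the initial dataset. Tiles were fused to an estradiol-inducible synthetic transcription factor, barcoded, and integrated at URA3 in yeast diploids carrying a GFP reporter. Induction used 1 uM beta-estradiol in SC for 4 hours at 30 °C, after which cells were sorted into 8 GFP:mCherry bins, and any tile with fewer than 50 reads was dropped.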

Row | Sequence | transcriptional activation domain activity
1 | VIMCTALGIKSVKFEFANLCLVSIEHIFALFFYPMAVIICPSFLLHIATFFYI | 83900
2 | VIRGLEELVYLDIRLPFQVEFLNMNPLLLGPACILRSMTLVILSSDGCFPTSR | 54000
3 | VISDSEDEKPPAKKAKTEEKAEKEEAKEDPEAKAKAVKEKEEAALKLATTRIL | 40700
4 | VISTLYHGPQIWVPILVSTGLLAIFAEILPQYFIPRQAISWGYYCWPLIWGCM | 36700
5 | VIVIVMLFFLFYFNRLLGFVISKIVSYWTWKLYSAHIEIESIKFALLGGRISF | 55200
6 | VIYRIDKDELTTGMLLVRNNLVELMAASTGPAAHLRVLVVDLVAPSFRSIPRG | 44400
7 | VIYSHRYVFHKKKGLRHIHVLNGWYVLSRIIAVYVLQDFLGEGSSVVVIAFLR | 58700
8 | VIYTSFFLYIYTPFIPFFFLFFFFLLLIPTFYIYMKRVLYYGLILWWFIQYSL | 51700
9 | VKAAAPKRGGRKKKVEAKAEAGDEVEAAVFEKKEVEEEEKEKGGEKEVKETVE | 9930
10 | VKAVVICLLICETLQITFFFCATYWLLIDHFGDFNALVVITWHESVQLLAGYL | 45200
11 | VKEGGKDLVQLPKSWVEIDGEILVRAVLLLLHPGATLYGPVPMKIARNWPFAS | 60700
12 | VKEKTDQAKAEDRKRAEKRGEQYEDSSDEEKERRRKARQKAKQGGGTGAAKAP | 26200
13 | VKFRFLTYSRWLVLILYVFSWSFTIISMLLVTTNNANFTSCFLSIMVCDIFYS | 71700
14 | VKGAGKGKGKDDGKKNSMVLLLLCSLLSVNFMLGNYAPQLWILLLVPMSLAAP | 45000
15 | VKGGGDSRKVKGAESGQSGSGSGKQSGSRRRAVSSSRTRGSKEPDASIKSNGT | 35100
16 | VKHLKLSRDKSSPTFKFDSLYREILSSHPELMFILTAMLLWPDLVSDYHILRV | 30200
17 | VKHRVIHLLVVFVAFFFAVTPVYFDYLCCGSPLVLFSSTLGMIIHLILFFFCL | 49000
18 | VKHTYLMVTILLLFIFITMCCIMDNVRCIVALNNPGLDLGPPNSVIGILINAC | 18100
19 | VKKAAEDGEDEAEEKPAPKAKRGRKKAELDEDDEEEAQPAKKKAKKAAPKAAA | 21400
20 | VKKHYKLYYLDPGRTREFIAVSWFEVDILLVRWCSTTEYYTMTVFMTSLKKLN | 50000
21 | VKKKGGSGGIDAGDIWGCNRRGSNFVEVRSMLAKEGGRLLVNVLRDMIDGTVR | 65900
22 | VKPASRASAKPPSTTGAKKPASRASSRKPASKVGKEDKENGDAAAASAAAPDT | 25100
23 | VKPEAKAEHIKENTKPKPLGTKRANKAAEAPAPAAKKPVKKAAVPKKAAAAPA | 59600
24 | VKPIPPRPSTGLRYRVETLIGITGYRMAKFRPSWSEVVLACLNVLWRPQFFFV | 55000
25 | VKPRPLPLPVLIAKALREKGLVYFFRSVRVSGSGTAEVVRGKWYMNFLPTLAR | 73200
26 | VKRVAFGCLSTILALYLVHKYTYEHPFILSDNRHYSFYVWKKIYRRHWMVRYC | 61000
27 | VKVVRGTGKLIFLSRCIEPWLPKNNAYLLSLPWLDWKSLVLTVLYGIKGYCFL | 62600
28 | VKWAKETRGEQRKRLHIVPVGIVYTNKSQYQSRVSSRVHICVHVEAFVQERTS | 52100
29 | VLAGYVVHVFGGDYFHSFSMTFFTFIWTLLFMGYIFITRDYIPKCYFYWLHIA | 54600
30 | VLAMVAQIRTGLWLLHYRDFMLRELCYDQDLYILQTALIILEPDLVFLLQFFE | 33500
